Laboratory results as given in the supplement of paper PMC9112550, “Optimization of the antimicrobial peptide Bac7 by deep mutational scanning” (BMC Biology, 2022).

Tested on: Escherichia coli TOP10
Experiment: shrunken log2 fold change of peptide-encoding DNA abundance (4.5 h post-induction vs induction); higher = less antimicrobial activity (less host growth inhibition)
Details: time post-induction: 4.5 h; library: site-saturation at positions 5, 18, 19, 20
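Further: peptides expressed intracellularly from a pBAD plasmid library in pooled LB shake-flask culture, induced with 0.3% L-arabinose, DNA abundance read by NGS, three biological replicates, DESeq2 with apeglm shrinkage.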

RRIRWRPPRLPRPRPRPQKNPRP and RRIRQRPPRLPRPRPRPIEYPRP are within 0.2 log units of each other in “shrunken log2 fold change” value: 0.0916 for the first, -0.0135 for the second.

RRIRTRPPRLPRPRPRPVKQPRP and RRIRQRPPRLPRPRPRPAHCPRP are within 0.2 log units of each other in “shrunken log2 fold change” value: -0.00945 for the first, 0.0134 for the second.

Going from RRIRYRPPRLPRPRPRPLGPPRP to RRIRYRPPRLPRPRPRPQCTPRP, the “shrunken log2 fold change” value falls from 0.157 to -0.292.

RRIRFRPPRLPRPRPRPLTIPRP and RRIRDRPPRLPRPRPRPVFNPRP are within 0.2 log units of each other in “shrunken log2 fold change” value: -0.219 for the first, -0.353 for the second.

Going from RRIRTRPPRLPRPRPRPFINPRP to RRIRQRPPRLPRPRPRPHRYPRP, the “shrunken log2 fold change” value falls from -0.161 to -0.812.

Compared with RRIRYRPPRLPRPRPRPADEPRP, RRIRKRPPRLPRPRPRPPEEPRP is higher in “shrunken log2 fold change” value: -0.451 for the first, 1.79 for the second.

RRIRPRPPRLPRPRPRPECYPRP and RRIRWRPPRLPRPRPRPFHCPRP are within 0.2 log units of each other in “shrunken log2 fold change” value: 0.044 for the first, -0.026 for the second.

Compared with RRIRARPPRLPRPRPRPSTLPRP, RRIRLRPPRLPRPRPRPNNFPRP is lower in “shrunken log2 fold change” value: 0.111 for the first, -0.184 for the second.

Going from RRIRNRPPRLPRPRPRPEEQPRP to RRIRCRPPRLPRPRPRPGIQPRP, the “shrunken log2 fold change” value falls from 0.202 to -0.248.

RRIRKRPPRLPRPRPRPMYLPRP and RRIRSRPPRLPRPRPRPHAAPRP are within 0.2 log units of each other in “shrunken log2 fold change” value: 0.239 for the first, 0.331 for the second.

First: RRIRQRPPRLPRPRPRPITFPRP
Second: RRIRGRPPRLPRPRPRPKLVPRP
The “shrunken log2 fold change” value of the first is lower: -0.11 for the first, 0.326 for the second.

First: RRIRVRPPRLPRPRPRPCYSPRP
Second: RRIRSRPPRLPRPRPRPQPPPRP
The “shrunken log2 fold change” value of the first is lower: 0.00378 for the first, 0.489 for the second.

RRIRSRPPRLPRPRPRPSKQPRP and RRIRSRPPRLPRPRPRPIYQPRP are within 0.2 log units of each other in “shrunken log2 fold change” value: -0.225 for the first, -0.158 for the second.

RRIRDRPPRLPRPRPRPAIQPRP and RRIRWRPPRLPRPRPRPAQTPRP are within 0.2 log units of each other in “shrunken log2 fold change” value: 0.389 for the first, 0.476 for the second.

Going from RRIRCRPPRLPRPRPRPHSVPRP to RRIRIRPPRLPRPRPRPWEEPRP, the “shrunken log2 fold change” value rises from -0.613 to -0.04.

First: RRIRMRPPRLPRPRPRPVCVPRP
Second: RRIRLRPPRLPRPRPRPATWPRP
The “shrunken log2 fold change” value of the first is higher: 0.241 for the first, -0.125 for the second.

First: RRIRWRPPRLPRPRPRPIWFPRP
Second: RRIRRRPPRLPRPRPRPSGPPRP
The “shrunken log2 fold change” value of the first is higher: 1.96 for the first, -0.0409 for the second.

RRIRPRPPRLPRPRPRPKWKPRP and RRIRARPPRLPRPRPRPFDVPRP are within 0.2 log units of each other in “shrunken log2 fold change” value: -0.0038 for the first, -0.0821 for the second.

First: RRIRQRPPRLPRPRPRPLRVPRP
Second: RRIRFRPPRLPRPRPRPDIDPRP
The “shrunken log2 fold change” value of the first is higher: 0.298 for the first, 0.0707 for the second.

RRIRWRPPRLPRPRPRPADCPRP and RRIRKRPPRLPRPRPRPEVHPRP are within 0.2 log units of each other in “shrunken log2 fold change” value: -0.00218 for the first, 0.013 for the second.

First: RRIRARPPRLPRPRPRPMWTPRP
Second: RRIRGRPPRLPRPRPRPECDPRP
The “shrunken log2 fold change” value of the first is lower: 0.0207 for the first, 2.16 for the second.

Compared with RRIRFRPPRLPRPRPRPKRDPRP, RRIRNRPPRLPRPRPRPLRGPRP is higher in “shrunken log2 fold change” value: 0.362 for the first, 0.654 for the second.

RRIRNRPPRLPRPRPRPGSLPRP and RRIRLRPPRLPRPRPRPAVNPRP are within 0.2 log units of each other in “shrunken log2 fold change” value: -0.0901 for the first, -0.0174 for the second.

RRIRNRPPRLPRPRPRPYDPPRP and RRIRVRPPRLPRPRPRPFHLPRP are within 0.2 log units of each other in “shrunken log2 fold change” value: -0.00192 for the first, 0.0337 for the second.

First: RRIRLRPPRLPRPRPRPQWCPRP
Second: RRIRMRPPRLPRPRPRPAIPPRP
The “shrunken log2 fold change” value of the first is lower: -0.282 for the first, 0.0268 for the second.

RRIRMRPPRLPRPRPRPKAYPRP and RRIRFRPPRLPRPRPRPILMPRP are within 0.2 log units of each other in “shrunken log2 fold change” value: 0.0225 for the first, -0.0682 for the second.

First: RRIRLRPPRLPRPRPRPAPFPRP
Second: RRIRSRPPRLPRPRPRPETVPRP
The “shrunken log2 fold change” value of the first is lower: -0.0923 for the first, 0.211 for the second.

RRIRGRPPRLPRPRPRPCKFPRP and RRIRIRPPRLPRPRPRPWYQPRP are within 0.2 log units of each other in “shrunken log2 fold change” value: 0.125 for the first, 0.00187 for the second.

Compared with RRIRFRPPRLPRPRPRPPHAPRP, RRIRERPPRLPRPRPRPPYQPRP is lower in “shrunken log2 fold change” value: 0.491 for the first, -0.1 for the second.

RRIRERPPRLPRPRPRPKCNPRP and RRIRNRPPRLPRPRPRPDRCPRP are within 0.2 log units of each other in “shrunken log2 fold change” value: 0.0249 for the first, -0.0122 for the second.

RRIRDRPPRLPRPRPRPHCTPRP and RRIRHRPPRLPRPRPRPWSGPRP are within 0.2 log units of each other in “shrunken log2 fold change” value: -0.0502 for the first, -0.17 for the second.

Going from RRIRPRPPRLPRPRPRPGKYPRP to RRIRARPPRLPRPRPRPVRFPRP, the “shrunken log2 fold change” value rises from -0.132 to 0.828.

Going from RRIRTRPPRLPRPRPRPIHPPRP to RRIRDRPPRLPRPRPRPGFFPRP, the “shrunken log2 fold change” value rises from -0.389 to 0.345.

Going from RRIRSRPPRLPRPRPRPRLRPRP to RRIRYRPPRLPRPRPRPFYYPRP, the “shrunken log2 fold change” value falls from 0.287 to -1.18.

First: RRIRWRPPRLPRPRPRPELDPRP
Second: RRIRIRPPRLPRPRPRPMPEPRP
The “shrunken log2 fold change” value of the first is higher: 1.82 for the first, -0.11 for the second.

Going from RRIRNRPPRLPRPRPRPHWTPRP to RRIRCRPPRLPRPRPRPSGYPRP, the “shrunken log2 fold change” value falls from 0.0333 to -0.724.

RRIRLRPPRLPRPRPRPAHNPRP and RRIRFRPPRLPRPRPRPAVAPRP are within 0.2 log units of each other in “shrunken log2 fold change” value: 0.255 for the first, 0.196 for the second.

With RRIRTRPPRLPRPRPRPSNPPRP the “shrunken log2 fold change” value was -0.663.
